For three substances, Kd, koff and kon results are on record in paper PMC10720262, “Molecular determinants of cross-reactivity and potency by VH3-33 antibodies against the Plasmodium falciparum circumsporozoite protein” (Cell Reports, 2023).

One may read the koff as a measure of how fast the partners let go of each other. The kon is the second-order rate constant of association. High values mean faster complex formation, low ones slower complex formation.

Assay [1] concerns the target mAb CIS43. The assay is described as follows: SPR.
For assay [2], the target named is mAb 317. Put plainly: SPR.
Sequence of mAb 317 (heavy, as listed by the source, chain 1 of 2): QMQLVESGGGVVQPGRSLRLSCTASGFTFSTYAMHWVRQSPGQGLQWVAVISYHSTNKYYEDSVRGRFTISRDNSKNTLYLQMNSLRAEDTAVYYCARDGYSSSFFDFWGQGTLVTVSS
Sequence of mAb 317 (light, as listed by the source, chain 2 of 2): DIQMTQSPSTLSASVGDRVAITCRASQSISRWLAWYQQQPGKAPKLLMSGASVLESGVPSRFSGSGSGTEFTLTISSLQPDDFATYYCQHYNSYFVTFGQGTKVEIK
Assay [3] addresses mAb CIS43. Put plainly: SPR; Carterra LSA; mAb amine-coupled to a CMD200M chip, peptide titrated in 2-fold steps up to 8 ug/mL without regeneration; 25 C; HBSTE (10 mM HEPES pH 7.4, 150 mM NaCl, 3 mM EDTA, 0.01% Tween 20); 1:1 Langmuir model; mean of triplicates; KD includes avidity for antigens with several repeats.
Assay [4] deals with mAb 317. The description is as above.

Sequence of mAb CIS43 (heavy, as listed by the source, chain 1 of 2): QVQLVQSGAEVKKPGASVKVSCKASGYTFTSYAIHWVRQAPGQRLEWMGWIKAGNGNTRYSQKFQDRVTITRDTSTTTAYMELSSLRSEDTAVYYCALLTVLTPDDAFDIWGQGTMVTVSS
Sequence of mAb CIS43 (light, as listed by the source, chain 2 of 2): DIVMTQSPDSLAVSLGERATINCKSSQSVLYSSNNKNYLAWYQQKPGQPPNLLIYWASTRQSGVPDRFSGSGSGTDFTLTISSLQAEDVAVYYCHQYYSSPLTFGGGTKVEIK

In the case of NANP3 peptide, the Kd in the assay with mAb CIS43 [1] turned out to be 1720 nM. Also, in the assay with mAb 317 [2], the Kd came out at 16.6 nM, the koff came out at 0.0206 s⁻¹ and the kon turned out to be 1.24e+06 M⁻¹ s⁻¹.
In the assay with mAb CIS43 [3], NPDP peptide yielded a Kd of 19.1 nM, a koff of 0.00216 s⁻¹ and a kon of 113000 M⁻¹ s⁻¹. In the assay with mAb 317 [4], this substance showed a Kd of 4560 nM, a koff of 0.0454 s⁻¹ and a kon of 10000 M⁻¹ s⁻¹.
On to NPNA3 peptide, for which, in the assay with mAb CIS43 [3], the Kd was 9430 nM, the koff turned out to be 0.0706 s⁻¹ and the kon worked out at 7940 M⁻¹ s⁻¹. Moreover, in the assay with mAb 317 [4], the Kd was found to be 7.03 nM, the koff amounted to 0.00138 s⁻¹ and the kon worked out at 197000 M⁻¹ s⁻¹.
